Laboratory results taken from US20230348616A1 (MIE UNIVERSITY, published 2023).
Numbering of substitutions follows the chain as printed. Like-named read-outs stand apart in the source and are kept apart here.

B1: NYC-0003 (scFv, not shown: small tags and cut ends)
scFv: EVQLLESGGGLVQPGGSLRLSCAASGFTFSTYQMSWVRQAPGKGLEWVSGIVSSGGSTAYADSVKGRFTISRDNSKNTLYLQMNSLRAEDTAVYYCAGELLPYYGMDVWGQGTTVTVSSGGGGSGGGGSGGGGSQSELTQPRSVSGSPGQSVTISCTGTSRDVGGYNYVSWYQQHPGKAPKLIIHDVIERSSGVPDRFSGSKSGNTASLTISGLQAEDEADYYCWSFAGSYYVFGTGTDVTVL
notes: also called 3M4E5 scFv; NYC-0003 tag adduct
B2: NYC-0004 (scFv, not shown: small tags and cut ends)
scFv: B1 scFv with S160E, S230G
notes: also called T1 scFv; NYC-0004 tag adduct
B3: NYA-0001 (scFv)
scFv: GEVQLVESGGGVVQPGRSLTPSCSASGFSIRSYDIHWVRQAPGKGLEWVATISYDGSQKYFADSVKGRFTIFRDESENMVYLQMSGLRVEDTAVYHCARGSSGHYEAFDIWGQGTMVTVSSGGGGSGGGGSGGGGSQSVLTQPPSVSAAPGQKVTISCSGSSSNIGNNYVSWYQQLPGTAPKLLIYDNNKRPSGIPDRFSGSKSGTSATLGITGLQTGDEADYYCGTWDSSLSAPWVFGGGTKVTVLGAAAGAGGDYKDDDDKGAAAHHHHHH
notes: also called NYA-0001 tag adduct; NY-R119 expressed in a cultured mammalian cell
B4: NYA-1154 (scFv)
scFv: B3 scFv with I35M, G103N, Q175R, T227A
B5: NYA-1163 (scFv)
scFv: B3 scFv with Q40L
B6: NYA-2023 (scFv)
scFv: B3 scFv with N168W
B7: NYA-1143 (scFv)
scFv: B3 scFv with Q40L, N168W
B8: NYA-2027 (scFv)
scFv: B3 scFv with T227S

Tests used:
[1] = biological target: T1, HLA-A*0201/β2-microglobulin/NY-ESO peptide complex (human, biotinylated with E. coli biotin ligase at the added recognition sequence (biotinylated form used in the ELISA)); assay: SPR (Biacore T200), scFv captured by anti-His antibody, HLA/NY-ESO as analyte, single cycle kinetics
T1 construct: also called HLA/NY-ESO; HLA-A2/NY-ESO
Description: With the use of Biacore T200, anti-HLA/NY-ESO scFv was captured as a ligand by the immobilized anti-His antibody, and the antigen was assayed as an analyte. As the antigen, HLA/NY-ESO prepared in 1)-1 was used. The anti-His antibody (His Capture kit, GE Healthcare) was immobilized on Sensor Chip CM5 (GE Healthcare) in accordance with the instructions of the kit. The anti-HLA/NY-ESO scFv constructs diluted to 0.5 μg/ml in HBS-EP+ (GE Healthcare) to be evaluated were brought into contact therewith at 10 μl/min for 60 seconds for immobilization. Thereafter, the samples were added to the HLA/NY-ESO analytes diluted to various levels with HBS-EP+ at a flow rate of 30 μl/min for 120 seconds and dissociation was assayed for 600 seconds.

[2] = biological target: T2, HLA-A2 / homologous peptide IL20RB complex on T2 cells (human); assay: flow cytometry on peptide-pulsed T2 cells, scFv 100 nM;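 note: scFv binding read as gMFI and normalized to the level of HLA/peptide complex displayed on T2 cells, with homologous 9-mer peptides used to probe specificity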
T2 construct: whole, on cells; also called T2 cells supplemented with homologous peptide IL20RB
Description: (§1) The cells were washed 2 times in PBS containing 5% FBS, immobilized with Mildform 10 N (FUJIFILM Wako Pure Chemical Corporation) overnight, and resuspended in PBS containing 5% FBS. The cell suspensions were subjected to detection using a flow cytometer (CantoII, Becton Dickinson). […] The standardized gMFI indicating the binding affinity of each scFv standardized with the amount of the HLA/peptide complex on the T2 cells was determined in accordance with the following equation.
(§2) The 9-mer peptide shown in FIG. 2A was selected as a homologous peptide for evaluation of binding specificity of anti-HLA/NY-ESO scFv. […] The standardized gMFI indicating the binding affinity of each scFv standardized with the amount of the HLA/peptide complex on the T2 cells was determined in accordance with the following equation.

gp100 [3] = biological target: T3, gp100 (human); assay: as above
T3 construct: cell surface;cell surface complex; also called HLA-A2 / gp100 peptide complex on T2 cells
Description: as §1, §2

[4] = biological target: T4, HLA-A2 / homologous peptide P2RY8 complex on T2 cells (human); assay: as above
T4 construct: whole, on cells; also called T2 cells supplemented with homologous peptide P2RY8
Description: as §1, §2

[5] = biological target: T5, HLA-A2 / homologous peptide CD163 complex on T2 cells (human); assay: as above
T5 construct: whole, on cells; also called T2 cells supplemented with homologous peptide CD163
Description: as §1, §2

[6] = biological target: T6, HLA-A2 / homologous peptide PRKD2 complex on T2 cells (human); assay: as above
T6 construct: whole, on cells; also called T2 cells supplemented with homologous peptide PRKD2
Description: as §1, §2

[7] = biological target: T7, HLA-A2 / homologous peptide DOLPP1 complex on T2 cells (human); assay: as above
T7 construct: whole, on cells; also called T2 cells supplemented with homologous peptide DOLPP1
Description: as §1, §2

[8] = biological target: T8, HLA-A2/NY-ESO peptide complex presented on cells (human); assay: as above
T8 construct: whole, on cells; also called HLA/NY-ESO; T2 cells supplemented with the NY-ESO peptide
Description: as §1, §2

gp100 [9] = biological target: T3, gp100; assay: as above; remark: listed apart in the source
Description: (§3) The resultant was washed two times in the AIM-V medium containing 20% FBS, the concentration thereof was adjusted to an adequate level with PBS containing 5% FBS, the LIVE/DEAD Fixable Dead Cell Stain Kit (Thermo Fisher Scientific) was added thereto, and the resultant was allowed to stand at 4° C. for 30 minutes. The cells were washed 2 times in PBS containing 5% FBS, the washed cells were divided into two groups, the cells in PBS containing 5% FBS were seeded on a 96-well U-bottom microplate at 10⁵ cells/well, and the plate was subjected to centrifugation, followed by removal of the supernatant. Anti-HLA/NY-ESO scFv diluted to 100 nM with PBS containing 5% FBS was added at 25 μl/well to one of the divided cells, and the resultant was allowed to stand at 4° C. for 30 minutes. The cells were washed 2 times in PBS containing 5% FBS, Penta-His Alexa Fluor488 (QIAGEN) diluted in PBS containing 5% FBS was added at 25 μl/well, and the resultant was allowed to stand at 4° C. for 30 minutes. The cells were washed 2 times in PBS containing 5% FBS, Anti-mouse-IgG Alexa Fluor488 (Thermo Fisher Scientific) diluted in PBS containing 5% FBS was added at 25 μl/well, and the resultant was allowed to stand at 4° C. for 30 minutes. The cells were washed 2 times in PBS containing 5% FBS, immobilized with Mildform 10 N (FUJIFILM Wako Pure Chemical Corporation) overnight, and resuspended in PBS containing 5% FBS. […] The cells were washed 2 times in PBS containing 5% FBS, immobilized with Mildform 10 N (FUJIFILM Wako Pure Chemical Corporation) overnight, and resuspended in PBS containing 5% FBS. The cell suspensions were subjected to detection using a flow cytometer (CantoII, Becton Dickinson). […] The standardized gMFI indicating the binding affinity of each scFv standardized with the amount of the HLA/peptide complex on the T2 cells was determined in accordance with the following equation.

[10] = biological target: T8, HLA-A2/NY-ESO peptide complex presented …; assay: as above; remark: listed apart in the source
Description: as §3

[11] = biological target: T2, HLA-A2 / homologous peptide IL20RB …; assay: flow cytometry, peptide-pulsed T2 cells
[12] = biological target: T4, HLA-A2 / homologous peptide P2RY8 …; assay: flow cytometry, peptide-pulsed T2 cells
[13] = biological target: T5, HLA-A2 / homologous peptide CD163 …; assay: flow cytometry, peptide-pulsed T2 cells
[14] = biological target: T6, HLA-A2 / homologous peptide PRKD2 …; assay: flow cytometry, peptide-pulsed T2 cells
[15] = biological target: T7, HLA-A2 / homologous peptide DOLPP1 …; assay: flow cytometry, peptide-pulsed T2 cells

Row | Binder | Kd [1] [nM] | standardized gMFI [2] | standardized gMFI (gp100 [3]) | standardized gMFI [4] | standardized gMFI [5] | standardized gMFI [6] | standardized gMFI [7] | standardized gMFI [8] | standardized gMFI (gp100 [9]) | standardized gMFI [10] | binding result [11] | binding result [12] | binding result [13] | binding result [14] | binding result [15] | binding result [2] | binding result [4] | binding result [5] | binding result [7]
1 | B1 | 8.1 | 0.43 | 0.32 | 2.01 | 1.08 | 1.53 | 0.38 | 5.22 | 0.39 | 3.74 | – | – | – | – | – | – | – | – | –
2 | B2 | 2.8 | 0.43 | 0.32 | 1.98 | 0.49 | 3.41 | 0.39 | 9.19 | 0.37 | 6.02 | – | – | – | – | – | – | – | – | –
3 | B3 | 33.8 | 0.42 | 0.31 | 0.73 | 0.48 | 0.33 | 0.37 | 5.12 | 0.43 | 5.75 | no binding (tested: 100 nM) | no binding (tested: 100 nM) | no binding (tested: 100 nM) | no binding (tested: 100 nM) | no binding (tested: 100 nM) | – | – | – | –
4 | B4 | – | 0.51 | 0.31 | 0.65 | 0.54 | 2.72 | 0.46 | 13.8 | 0.46 | 9.98 | – | – | – | – | – | no binding (tested: 100 nM) | no binding (tested: 100 nM) | no binding (tested: 100 nM) | no binding (tested: 100 nM)
5 | B5 | 13 | 0.41 | 0.3 | 0.69 | 0.46 | 0.31 | 0.36 | 4.21 | 0.44 | 3.67 | no binding (tested: 100 nM) | no binding (tested: 100 nM) | no binding (tested: 100 nM) | no binding (tested: 100 nM) | no binding (tested: 100 nM) | – | – | – | –
6 | B6 | 2.4 | 0.42 | 0.3 | 0.7 | 0.48 | 0.42 | 0.42 | 10.1 | 0.4 | 8.85 | no binding (tested: 100 nM) | no binding (tested: 100 nM) | no binding (tested: 100 nM) | no binding (tested: 100 nM) | no binding (tested: 100 nM) | – | – | – | –
7 | B7 | 1 | 0.42 | 0.3 | 0.69 | 0.46 | 0.32 | 0.37 | 13.4 | 0.41 | 12.9 | no binding (tested: 100 nM) | no binding (tested: 100 nM) | no binding (tested: 100 nM) | no binding (tested: 100 nM) | no binding (tested: 100 nM) | – | – | – | –
8 | B8 | 11.2 | 0.42 | 0.31 | 0.7 | 0.51 | 0.32 | 0.39 | 7.25 | 0.41 | 5.75 | no binding (tested: 100 nM) | no binding (tested: 100 nM) | no binding (tested: 100 nM) | no binding (tested: 100 nM) | no binding (tested: 100 nM) | – | – | – | –
